Here are results for 4 molecules from patent publication US20240218067A1 (ONCOC4, published 2024).

Changes are numbered by the printed parent chain.

Assay [1] deals with human Siglec-10 extracellular domain recombinant protein (His or Fc tag) (human) (UniProt Q96LC7). As to the kind of experiment: ELISA, Siglec protein coated, biotinylated ONC-841, avidin-HRP. (An ELISA detects its analyte on a solid surface through an enzyme-linked reagent.)
The target in assay [2] is T1, human Siglec-10 on the cell surface (human, UniProt Q96LC7 17-697).
T1 sequence (looked up): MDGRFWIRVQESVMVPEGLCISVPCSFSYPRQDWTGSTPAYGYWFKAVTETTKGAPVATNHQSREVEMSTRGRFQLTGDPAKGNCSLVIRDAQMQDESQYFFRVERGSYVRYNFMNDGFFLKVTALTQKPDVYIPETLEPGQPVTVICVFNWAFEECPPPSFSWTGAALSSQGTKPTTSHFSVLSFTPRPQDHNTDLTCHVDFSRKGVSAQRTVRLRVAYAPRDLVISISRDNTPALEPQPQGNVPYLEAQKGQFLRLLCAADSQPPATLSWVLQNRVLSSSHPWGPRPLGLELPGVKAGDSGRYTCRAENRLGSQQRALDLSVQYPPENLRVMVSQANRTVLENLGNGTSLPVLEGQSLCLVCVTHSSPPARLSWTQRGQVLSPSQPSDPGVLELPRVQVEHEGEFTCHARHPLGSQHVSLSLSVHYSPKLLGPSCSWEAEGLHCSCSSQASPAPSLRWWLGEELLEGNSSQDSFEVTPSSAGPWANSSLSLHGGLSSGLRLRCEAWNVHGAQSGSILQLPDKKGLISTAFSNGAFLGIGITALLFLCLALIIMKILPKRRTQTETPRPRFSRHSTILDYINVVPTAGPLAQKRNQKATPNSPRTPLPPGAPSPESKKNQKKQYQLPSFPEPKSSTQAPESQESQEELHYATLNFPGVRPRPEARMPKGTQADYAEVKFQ
Briefly: flow cytometry, human PBMC, monocytes, fluorescently labeled ONC-841 (upper left quadrant).

In assay [3] the target is human Siglec-10 extracellular domain recombinant protein (His or Fc tag) (human) (UniProt Q96LC7). Briefly: ELISA: Siglec-10 His coated, biotinylated ONC-841, avidin-HRP.
Assay [4] concerns the target T1, human Siglec-10 on the cell surface. As to the kind of experiment: flow cytometry, human PBMC, B cells, fluorescently labeled ONC-841 (upper left quadrant). On the technique in general: A flow cytometer gives signals particle by particle.
Assay [5] concerns the target marmoset Siglec-10 on expi293 cells (marmoset) (UniProt F6WZ94). As to the kind of experiment: flow cytometry on live expi293 cells transfected with marmoset Siglec-10; FMO median 13762.
In assay [6] the target is T1, human Siglec-10 on the cell surface. As to the kind of experiment: flow cytometry on live expi293 cells transfected with human Siglec-10; FMO median 14075.
The target of assay [7] is recombinant His-tagged human Siglec-10 (ACROBiosystems) (human) (UniProt Q96LC7). As to the kind of experiment: ELISA: His-tagged human Siglec-10 coated, ONC-841 detected with goat anti-human antibody.
Assay [8] deals with cynomolgus Siglec-10 on the cell surface (cynomolgus). Briefly: flow cytometry on live expi293 cells transfected with cynomolgus Siglec-10; FMO median 13824.
Sequence of cynomolgus Siglec-10 on the cell surface (cynomolgus) (chain, as listed by the source): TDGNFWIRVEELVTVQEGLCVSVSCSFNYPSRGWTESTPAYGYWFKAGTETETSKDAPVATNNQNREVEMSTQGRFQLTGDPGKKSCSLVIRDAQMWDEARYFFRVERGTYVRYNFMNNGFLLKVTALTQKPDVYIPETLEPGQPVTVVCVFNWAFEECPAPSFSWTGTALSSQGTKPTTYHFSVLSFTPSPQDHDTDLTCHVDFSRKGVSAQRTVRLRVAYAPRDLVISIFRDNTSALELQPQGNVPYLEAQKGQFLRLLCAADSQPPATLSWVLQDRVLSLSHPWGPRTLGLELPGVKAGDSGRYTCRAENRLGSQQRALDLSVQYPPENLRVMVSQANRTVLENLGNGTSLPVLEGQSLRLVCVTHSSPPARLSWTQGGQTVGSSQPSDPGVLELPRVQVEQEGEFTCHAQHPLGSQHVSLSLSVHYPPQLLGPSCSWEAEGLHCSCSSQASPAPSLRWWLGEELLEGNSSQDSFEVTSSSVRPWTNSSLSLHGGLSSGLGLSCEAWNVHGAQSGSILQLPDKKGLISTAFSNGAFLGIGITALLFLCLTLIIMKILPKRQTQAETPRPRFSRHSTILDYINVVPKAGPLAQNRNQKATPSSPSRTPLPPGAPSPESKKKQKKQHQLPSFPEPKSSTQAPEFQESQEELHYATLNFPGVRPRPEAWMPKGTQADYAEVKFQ
For assay [9] the target is unchanged. As to the kind of experiment: flow cytometry, cynomolgus PBMC, CD14hi monocytes, without excess hIgG.
The target of assay [10] is T1, human Siglec-10 on the cell surface. Briefly: flow cytometry, human PBMC, CD14hi monocytes, without excess hIgG; FMO median 1244.
In assay [11] the target is rhesus Siglec-10 on expi293 cells (rhesus) (UniProt F7GW74). As to the kind of experiment: flow cytometry on live expi293 cells transfected with rhesus Siglec-10; FMO median 13039.
Sequence of rhesus Siglec-10 on expi293 cells (rhesus) (F7GW74 entry or part of it): as the sequence (chain, as listed by the source) above, with N4S, E11K, T14M, R306H, R486G, E568D, F645S counted along it
For assay [12], the target named is T1, human Siglec-10 on the cell surface. As to the kind of experiment: cell-based or functional assay.
The target of assay [13] is T2, Siglec-10 (Biacore analysis) (UniProt Q96LC7 17-546, limits assumed).
T2 sequence (looked up): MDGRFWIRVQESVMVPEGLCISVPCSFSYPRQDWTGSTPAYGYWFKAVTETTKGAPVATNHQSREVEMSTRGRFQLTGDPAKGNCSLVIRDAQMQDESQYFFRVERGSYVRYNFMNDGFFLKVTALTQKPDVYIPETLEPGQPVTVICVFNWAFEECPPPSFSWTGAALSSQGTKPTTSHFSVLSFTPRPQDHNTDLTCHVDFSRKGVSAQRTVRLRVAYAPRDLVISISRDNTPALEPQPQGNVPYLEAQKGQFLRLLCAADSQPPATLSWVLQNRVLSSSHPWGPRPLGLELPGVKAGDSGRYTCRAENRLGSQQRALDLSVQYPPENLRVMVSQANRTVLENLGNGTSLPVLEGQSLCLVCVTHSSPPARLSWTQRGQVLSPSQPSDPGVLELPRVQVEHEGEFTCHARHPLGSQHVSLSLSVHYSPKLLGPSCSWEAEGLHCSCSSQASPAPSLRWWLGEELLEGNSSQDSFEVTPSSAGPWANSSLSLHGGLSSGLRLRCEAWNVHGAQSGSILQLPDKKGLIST
As to the kind of experiment: Biacore (data from a separate experiment); data from a separate experiment. Background: Surface plasmon resonance follows binding to a sensor surface in real time, without labels.

Assay [14] addresses T1, human Siglec-10 on the cell surface. As to the kind of experiment: flow cytometry, Jurkat cells expressing human Siglec-10.
The target of assay [15] is T2, Siglec-10 (Biacore analysis). Briefly: Biacore.

Sequence of marmoset Siglec-10 on expi293 cells (marmoset) (F6WZ94 entry or part of it): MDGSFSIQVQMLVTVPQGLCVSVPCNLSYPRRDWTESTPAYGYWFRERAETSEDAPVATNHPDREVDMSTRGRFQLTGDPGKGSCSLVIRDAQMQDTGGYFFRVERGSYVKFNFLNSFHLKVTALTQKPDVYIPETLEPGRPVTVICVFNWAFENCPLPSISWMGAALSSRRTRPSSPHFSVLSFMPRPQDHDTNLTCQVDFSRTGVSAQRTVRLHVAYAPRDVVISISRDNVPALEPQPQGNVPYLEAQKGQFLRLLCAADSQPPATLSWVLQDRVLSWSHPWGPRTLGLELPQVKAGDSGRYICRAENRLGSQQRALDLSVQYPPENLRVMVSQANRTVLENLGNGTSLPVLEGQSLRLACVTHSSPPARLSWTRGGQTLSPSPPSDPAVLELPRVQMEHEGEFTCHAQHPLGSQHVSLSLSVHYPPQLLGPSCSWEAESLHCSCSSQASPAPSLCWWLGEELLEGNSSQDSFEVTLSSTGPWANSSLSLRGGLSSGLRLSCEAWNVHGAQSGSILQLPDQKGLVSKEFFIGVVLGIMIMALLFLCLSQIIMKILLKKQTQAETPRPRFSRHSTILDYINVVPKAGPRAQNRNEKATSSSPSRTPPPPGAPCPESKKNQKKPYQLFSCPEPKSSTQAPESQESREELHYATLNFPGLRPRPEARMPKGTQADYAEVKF

A word on the Kd: it is the equilibrium constant for the complex coming apart. A word on the EC50 (read off the curve): it is the concentration that produces a half-maximal response. For ONC-841 (antibody), the Kd in assay [1] came out at 0.0225 µg/mL. Further, the % positive cells is 79% in assay [2] and 51% in [4]. Also, the EC50 (read off the curve) came out at 0.02 µg/mL in assay [3] and 0.009 µg/mL in assay [7]. Besides, the Median : Comp-APC-A in [5] came out at 14200; in [6] it was 64200; in [8], 14500; in assay [11], 13100. The Median : Comp-Alexa Fluor 488-A is 1770 in assay [9] and 7250 in [10]. Further, the EC50, ADCC reporter activity of anti-CD20 against Raji cells in [12] amounted to 0.5 µg/mL. In assay [12], this molecule had an EC50, ADCC reporter activity of cetuximab against B16 cells expressing human EGFR of 0.3 µg/mL. The IC50 (so in the source), ADCC reporter activity of ONC-392 against CTLA-4 expressing CHO cells in [12] was determined as 0.08 µg/mL.

B1: humanized 31F11 clone #21 (antibody, V domains shown)
VH: QVTLKESGPALVKPTQTLTLTCTFSGFSLSTSGMGLSWIRQPPGKALEWLAHIYWDDDKRYNPSLKSRLTISKDTSKNQVVLTMTNMDPVDTATYYCVRGLYGNWFFDVWGQGTTVTVSS
VL: DIVMTQSPATLSVSPGERATLSCKASQNVGTAVAWYQQKPGQAPRLLIYSASNRYTGVPARFSGSGSGTEFTLTISSLQSEDFAVYFCQQYSSYPLTFGGGTKVEIK
notes: also called hu-VHv1VLv2
For orientation: EC50 means the concentration at which the effect is half-maximal. The koff is a measure of how fast the partners let go of each other. Read a high koff as fast dissociation. One may read the kon as the rate constant with which the complex forms. In turn, B1 returned a Kd in [13] of 2.17 nM. This molecule also showed an EC50 in assay [14] of 0.242 µg/mL. In [15], this molecule displayed a koff of 0.000589 s⁻¹ and a kon of 272000 M⁻¹ s⁻¹. In assay [12], the “ADCC EC50” value was determined as 0.153 µg/mL.

B2: humanized 31F11 clone #22 (antibody, V domains shown)
VH: B1 VH with Q112A
VL: B1 VL
notes: also called hu-VHv2VLv2
In [14], B2 returned an EC50 of 0.237 µg/mL. In assay [15], this molecule showed a Kd of 1.23 nM, a koff of 0.000202 s⁻¹ and a kon of 164000 M⁻¹ s⁻¹. The “ADCC EC50” value in assay [12] was 0.266 µg/mL.

B3: humanized 31F11 clone #23 (antibody, V domains shown)
VH: B1 VH with V98A
VL: B1 VL
As to B3, in [14], the EC50 came out at 0.237 µg/mL. Moreover, in assay [15], the Kd stood at 1.5 nM, the koff was determined as 0.000197 s⁻¹ and the kon worked out at 131000 M⁻¹ s⁻¹. In assay [12], the “ADCC EC50” value is 0.342 µg/mL.
